The values below come from patent CN114349851A (SHANGHAI NAI BIOTECHNOLOGY CO LTD, dated 2022).

The target of assay [1] is T1, RBD-Fc (RBD与Fc的融合蛋白), 野生型RBD (SARS-CoV-2, UniProt P0DTC2 319-541). In words: BLI (Octet RED96), His-tagged nanobody on Ni-NTA sensor, RBD-Fc as analyte. A general note: Biolayer interferometry detects binding as a change in optical thickness at a sensor tip.
For assay [2], the target named is T1, RBD-Fc (RBD与Fc的融合蛋白), 野生型RBD. The experiment in a line: competitive ELISA, nanobody titrated against RBD binding to coated ACE2. A general note: ELISA stands for enzyme-linked immunosorbent assay.
Assay [3] shares this target. In words: BLI, compared with C5.

B1: 纳米抗体C5D2 (VHH)
VHH: DVQLVESGGGSVQAGGSLRLSCAASGEYSQLRFLGWFRQAPGKEREGVAAGLGANEDGYYADSVKGRFTVSLDNAENTVYLQMNSLKPEDTALYYCAALVIFSHDGPEFLAQNYWGQGTQVTVSS
What is called Kd is the equilibrium constant for the complex coming apart. Read a low Kd as a tighter complex. Broadly, the IC50 is the point on the concentration scale where inhibition reaches its midpoint. Molecule B1 returned a Kd in assay [1] below 0.001 nM. Moreover, the concentration for half-maximal inhibition (IC50) in assay [2] is 28 nM.

B2: 纳米抗体C5G2 (VHH)
VHH: DVQLVESGGGSVQAGGSLRLSCAASGKFSHLVFLGWFRQAPGKEREGVAAGLGAYESGYYADSVKGRFTVSLDNAENTVYLQMNSLKPEDTALYYCAALVVLSRDNTEFIAHNYWGQGTQVTVSS
Turning to B2, the “fold increase in affinity over C5” value in assay [3] was 11 fold. The molecule also registered a Kd in assay [1] of 1.62 nM. This molecule also yielded a 50% inhibitory concentration (IC50) in assay [2] of 88 nM.
